Reference: article PMC10143822, “Structural Adaptation of the Single-Stranded DNA-Binding Protein C-Terminal to DNA Metabolizing Partners Guides Inhibitor Design” (Pharmaceutics, 2023)
Where a SMILES comes first, the peptide text is derived from it. Primed or numbered codes have the meaning given here. Where no end group is shown, it is not given here. [ ]: non-standard residue; d: D form. 5,6‑carboxyfluorescein = 5,6-carboxyfluorescein; Phe(4-CF3) = N[C@@H](Cc1ccc(C(F)(F)F)cc1)C(=O)O; Phe(3-Cl) = N[C@@H](Cc1cccc(Cl)c1)C(=O)O; Phe(4-Cl) = N[C@@H](Cc1ccc(Cl)cc1)C(=O)O; 3Pal = N[C@@H](Cc1cccnc1)C(=O)O; NMeD = CN[C@@H](CC(=O)O)C(=O)O; Tle = CC(C)(C)[C@H](N)C(=O)O; β3hD = NC(CC(=O)O)CC(=O)O; Pip′ = not defined here

Key:
ExoI = molecular target: T1, ExoI (Escherichia coli, UniProt P04995); test: biochemical; assay type: binding, E. coli
T1 construct: His-tag (cleaved yes); host or cells: E. coli BL21 (DE3) pLysS
T1 sequence (P04995 whole entry): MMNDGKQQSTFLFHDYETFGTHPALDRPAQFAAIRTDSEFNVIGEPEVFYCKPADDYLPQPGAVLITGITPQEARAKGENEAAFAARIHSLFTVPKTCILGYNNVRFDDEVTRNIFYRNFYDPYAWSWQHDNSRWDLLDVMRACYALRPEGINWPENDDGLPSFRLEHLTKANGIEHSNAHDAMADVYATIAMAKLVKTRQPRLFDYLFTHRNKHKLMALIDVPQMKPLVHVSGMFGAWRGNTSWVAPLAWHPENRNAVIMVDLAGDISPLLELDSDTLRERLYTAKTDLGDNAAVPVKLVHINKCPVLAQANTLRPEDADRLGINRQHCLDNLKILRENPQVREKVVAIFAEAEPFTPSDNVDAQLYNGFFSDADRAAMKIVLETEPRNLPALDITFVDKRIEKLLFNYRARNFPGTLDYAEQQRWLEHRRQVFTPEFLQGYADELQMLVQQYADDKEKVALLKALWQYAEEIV
Method: (§1) Triplicate measurements were performed using a Clariostar Plus Microplate Reader in 384-well plates for all fluorescence anisotropy (FA) experiments. The settings were 25 °C, excitation at 485 nm, emission at 510 nm, settling time of 0.2 s, and 200 flashes per well.
(§2) Competition fluorescence anisotropy experiments were carried out as follows: protein (0.5 μM either ExoI or RecO) was incubated with 50 nM F-wtSSB peptide and 0–500 μM unlabeled wtSSB (or a variant) peptide for 30 min at room temperature. For direct fluorescence anisotropy measurements, 16 µM ExoI and 7.5 µM RecO were used in the first well. After serial dilution, either 50 nM of F-mSSB or F-sSSB was added to the wells and then incubated for 30 min. Buffers used included 20 mM Tris-HCl (pH 8.0), 100 mM NaCl, 1 mM MgCl2, 1 mM 2-mercaptoethanol, 10% (v/v) glycerol, for ExoI and 20 mM Tris-HCl (pH 8.0), 200 mM NaCl, 1 mM 2-mercaptoethanol, 10% (v/v) glycerol, and 0.01% Triton-X 100 for RecO [37].
(§3) Fluorescence anisotropy values were normalized and are shown as bound fractions (BF, %). BF=r−rmin/λ(rmax−r)+r−rmin, I=2∗PG+S, r=S−PG/I, where r: anisotropy, I: total intensity, P: perpendicular intensity, S: parallel intensity, G: an instrument factor set to 1, BF: ligand fraction bound, and λ=λbound/λunbound=1 .
(§4) Competitive fluorescence anisotropy was analyzed in Origin Pro 9.5, and IC50 values were determined using the Logistic Nonlinear fit function and are shown as plots for each mutated position for each protein in Figures S4 and S6. EC50 values from direct fluorescence anisotropy titrations were plotted in Origin 9.5. Values were determined using the Logistics Nonlinear fit function.

RecO = molecular target: T2, RecO (Escherichia coli, UniProt P0A7H3); test: biochemical; assay type: binding; settings: 0.5 μM RecO, 50 nM F-wtSSB tracer, 0–500 μM unlabeled peptide, 30 min room temperature; 20 mM Tris-HCl pH 8.0, 200 mM NaCl, 10% glycerol, 0.01% Triton-X 100; 25 °C; triplicate; read-out: IC50 on RecO, competitive fluorescence anisotropy
T2 construct: His-tag (TEV site) (N, cleaved yes); made in house; host or cells: E. coli Rosetta cells
Method: as §1, §2, §3, §4

E. coli Exonuclease I [1] = molecular target: T3, E. coli Exonuclease I (E. coli, UniProt P04995 1-471); test: fluorescence polarisation; direct fluorescence anisotropy: ExoI serially diluted from 16 µM, 50 nM fluorescein-labelled peptide, 30 min, 25 °C; 20 mM Tris-HCl pH 8.0, 100 mM NaCl, 1 mM MgCl2, 1 mM 2-mercaptoethanol, 10% glycerol; settings: both partners purified
T3 construct: Exonuclease I of E. coli, from plasmid pET14b-E. coli Exonuclease I (Addgene 104552); The His tag was cut off with thrombin only for the purified protein; also called ExoI; Exol; source: E. coli BL21 (DE3) pLysS, purified (Ni-NTA, heparin); also in cell lysate (pull-down)
T3 sequence: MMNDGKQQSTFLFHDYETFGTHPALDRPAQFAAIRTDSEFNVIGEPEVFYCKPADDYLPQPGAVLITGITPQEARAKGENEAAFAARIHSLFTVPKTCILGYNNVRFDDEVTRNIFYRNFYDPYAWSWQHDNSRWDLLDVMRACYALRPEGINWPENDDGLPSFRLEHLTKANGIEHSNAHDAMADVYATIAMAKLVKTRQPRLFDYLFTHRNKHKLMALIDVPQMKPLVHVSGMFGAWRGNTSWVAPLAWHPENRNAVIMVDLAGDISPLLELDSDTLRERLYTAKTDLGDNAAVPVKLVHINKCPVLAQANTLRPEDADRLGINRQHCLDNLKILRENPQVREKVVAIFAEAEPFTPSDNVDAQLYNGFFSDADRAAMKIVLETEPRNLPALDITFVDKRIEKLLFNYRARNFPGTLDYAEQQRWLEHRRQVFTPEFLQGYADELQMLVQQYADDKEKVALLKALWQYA

Escherichia coli RecO = molecular target: T4, Escherichia coli RecO (Escherichia coli, UniProt P0A7H3 1-242); test: ITC; peptide in the syringe titrated into RecO in the cell; 50 mM HEPES pH 7.5, 50 mM NaCl, 25% glycerol, 1 mM TCEP; model A + B = C, stoichiometry fixed to 1:1, incompetent fraction fitted; settings: both partners purified
T4 construct: RecO of Escherichia coli, synthetic gene in pET28a+ with a TEV site at the 5' end; The His tag was cut off with TEV protease only for the purified protein; source: E. coli Rosetta, purified (Ni-NTA, heparin); also in cell lysate (pull-down); not shown: His tag, N-terminal, cleaved
T4 sequence: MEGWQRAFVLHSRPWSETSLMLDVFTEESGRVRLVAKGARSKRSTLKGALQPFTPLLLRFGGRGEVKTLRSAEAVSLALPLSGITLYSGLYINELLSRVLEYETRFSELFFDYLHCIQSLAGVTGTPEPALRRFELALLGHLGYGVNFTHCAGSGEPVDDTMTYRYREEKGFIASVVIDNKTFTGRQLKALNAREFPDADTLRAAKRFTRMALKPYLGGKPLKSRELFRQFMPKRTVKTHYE

E. coli Exonuclease I [2] = molecular target: T3, E. coli Exonuclease I; test: ITC; peptide in the syringe titrated into ExoI in the cell; 20 mM Tris–HCl pH 8.0, 100 mM NaCl, 1 mM MgCl2, 4% glycerol, 1 mM β-mercaptoethanol; model A + B = C, stoichiometry fixed to 1:1, incompetent fraction fitted; settings: both partners purified

Molecule | IC50 (ExoI) | IC50 (RecO) | EC50 (E. coli Exonuclease I [1]) | other results
CC[C@H](C)[C@H](NC(=O)[C@H](CC(=O)O)NC(=O)C[C@H](CC(=O)O)NC(=O)[C@H](CC(=O)O)NC(=O)[C@H](Cc1ccccc1)NC(=O)[C@H](CC(=O)O)NC(C)=O)C(=O)N1CCC[C@H]1C(=O)N[C@@H](Cc1ccccc1)C(=O)O [β3-Asp4] (Ac-DFD[β3hD]DIPF-OH) | 1540 ± 130 nM | 19600 ± 2780 nM | – | –
CC[C@H](C)[C@H](NC(=O)[C@H](CC(=O)O)NC(=O)[C@H](CC(=O)O)NC(=O)[C@H](CC(=O)O)NC(=O)[C@H](Cc1ccccc1)NC(=O)[C@H](CC(=O)O)NC(C)=O)C(=O)N1CCC[C@H]1C(=O)N[C@@H](Cc1cccnc1)C(=O)O [3Pal8] (Ac-DFDDDIP[3Pal]-OH) | 19900 ± 2810 nM | 31900 ± 4160 nM | – | –
CC(=O)N[C@@H](CC(=O)O)C(=O)N[C@@H](Cc1ccccc1)C(=O)N[C@@H](CC(=O)O)C(=O)N[C@@H](CC(=O)O)C(=O)N[C@@H](CC(=O)O)C(=O)N[C@H](C(=O)N1CCC[C@H]1C(=O)N[C@@H](Cc1ccccc1)C(=O)O)C(C)(C)C [tBuGly6] (Ac-DFDDD[Tle]PF-OH) | 2870 ± 260 nM | 10400 ± 1020 nM | – | –
{5,6‑carboxyfluorescein}-GGD[Phe(4-CF3)]DDDIPF (two glycines between the 5,6-carboxyfluorescein and the peptide; E. coli SSB-Ct, residues 171-178; F at position 2 stands for 4-CF3-Phe; numbers count on: the octapeptide (position 1 = SSB residue 171); One of Compounds 54-62 of the Supplementary Material; also called F-mSSB 4CF3-Phe2; source: synthetic peptide) [F-4CF3-Phe2 (fluorescein-labelled single mutant)] | – | – | 40 ± 2 nM | –
{5,6‑carboxyfluorescein}-DFDDDI[Pip′]F (not fully specified) [F-Pip7 (fluorescein-labelled single mutant)] | – | – | 90 ± 10 nM | –
Ac-D[Phe(4-Cl)][NMeD]DELP[Phe(3-Cl)] (SSB-Ct of E. coli SSB (residues 171-178) with combined modifications, printed in three-letter code; F2 stands for 4Cl-Phe, D3 for NM-Asp, F8 for 3Cl-Phe; numbers count on: the octapeptide (position 1 = SSB residue 171); source: synthetic peptide) [R1-sSSB-Ct (Asp–4Cl-Phe–NM-Asp–Asp–Glu–Leu–Pro–3Cl-Phe)] | – | – | – | Kd (Escherichia coli RecO): 130 nM; dH (Escherichia coli RecO): -6.79 kcal/mol; stoichiometry N (Escherichia coli RecO): 0.935
{5,6‑carboxyfluorescein}-GGDFDDDLPF (two glycines between the 5,6-carboxyfluorescein and the peptide; E. coli SSB-Ct, residues 171-178; numbers count on: the octapeptide (position 1 = SSB residue 171); One of Compounds 54-62 of the Supplementary Material; also called F-mSSB Leu6; source: synthetic peptide) [F-Leu6 (fluorescein-labelled single mutant)] | – | – | 200 ± 30 nM | –
{5,6‑carboxyfluorescein}-GGD[Phe(4-Cl)]DDDIPF (two glycines between the 5,6-carboxyfluorescein and the peptide; E. coli SSB-Ct, residues 171-178; F at position 2 stands for 4-Cl-Phe; numbers count on: the octapeptide (position 1 = SSB residue 171); One of Compounds 54-62 of the Supplementary Material; also called F-mSSB 4Cl-Phe2; source: synthetic peptide) [F-4Cl-Phe2 (fluorescein-labelled single mutant)] | – | – | 150 ± 20 nM | –
Ac-D[Phe(4-CF3)]DDDIP[Phe(4-CF3)] (SSB-Ct of E. coli SSB (residues 171-178), printed in three-letter code; F2 and F8 stand for 4-CF3-Phe; numbers count on: the octapeptide (position 1 = SSB residue 171); also called E2.SSB-Ct; source: synthetic peptide) [E2-sSSB-Ct (Asp–4-CF3-Phe–Asp–Asp–Asp–Ile–Pro–4-CF3-Phe)] | – | – | – | dH (E. coli Exonuclease I [2]): -13.4 kcal/mol; stoichiometry N (E. coli Exonuclease I [2]): 0.885
{5,6‑carboxyfluorescein}-GGDFDDDIP[Phe(4-CF3)] (two glycines between the 5,6-carboxyfluorescein and the peptide; E. coli SSB-Ct, residues 171-178; F at position 8 stands for 4-CF3-Phe; numbers count on: the octapeptide (position 1 = SSB residue 171); One of Compounds 54-62 of the Supplementary Material; also called F-mSSB 4CF3-Phe8; source: synthetic peptide) [F-4CF3-Phe8 (fluorescein-labelled single mutant)] | – | – | 90 ± 10 nM | –
